System: peptide library, one residue held at a place counted from the S/T acceptor
Assay: relative phosphorylation of the sub-library (ratio to the mean residue at this position); higher = residue favoured
Details: human
Procedure, shortened: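 Purified recombinant kinases, either human or orthologue constructs, were incubated in 384-well plates with biotinylated degenerate peptide sub-libraries. Each sub-library fixed one residue at one position around a central Ser/Thr. Peptides at 50 μM and 50 μM ATP spiked with γ-32P-ATP were used for 90 min under kinase-specific conditions, and spots on streptavidin membranes were phosphorimaged and quantified by densitometry. Relative sub-library phosphorylation is expressed as a ratio to the mean residue at that position.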

Chain of OXSR1, construct: Full length (O95747 whole entry, looked up): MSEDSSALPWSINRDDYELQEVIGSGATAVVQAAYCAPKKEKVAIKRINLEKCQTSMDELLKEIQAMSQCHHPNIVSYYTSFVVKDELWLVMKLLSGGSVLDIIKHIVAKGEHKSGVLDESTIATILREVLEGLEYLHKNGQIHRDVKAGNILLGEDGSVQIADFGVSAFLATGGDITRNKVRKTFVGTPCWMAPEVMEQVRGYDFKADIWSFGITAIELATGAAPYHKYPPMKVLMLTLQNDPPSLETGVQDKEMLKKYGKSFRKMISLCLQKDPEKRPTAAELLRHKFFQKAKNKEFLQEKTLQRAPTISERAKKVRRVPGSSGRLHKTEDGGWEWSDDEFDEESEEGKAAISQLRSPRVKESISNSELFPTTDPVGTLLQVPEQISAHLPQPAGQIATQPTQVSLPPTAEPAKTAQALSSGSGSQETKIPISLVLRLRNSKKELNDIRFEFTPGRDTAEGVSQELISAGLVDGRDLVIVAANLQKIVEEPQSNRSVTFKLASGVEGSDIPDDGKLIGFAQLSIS
Chain of MINK1, construct: aa1-320 (Q8N4C8 1-320, looked up): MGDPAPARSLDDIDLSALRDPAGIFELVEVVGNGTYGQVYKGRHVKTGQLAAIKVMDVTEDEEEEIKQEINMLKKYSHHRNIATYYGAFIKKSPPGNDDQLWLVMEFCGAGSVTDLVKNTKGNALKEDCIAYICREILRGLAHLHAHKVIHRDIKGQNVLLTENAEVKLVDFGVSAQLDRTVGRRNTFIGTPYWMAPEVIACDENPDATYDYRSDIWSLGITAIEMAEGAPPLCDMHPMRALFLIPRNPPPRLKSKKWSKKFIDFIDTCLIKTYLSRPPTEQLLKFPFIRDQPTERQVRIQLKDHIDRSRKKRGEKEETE
Chain of AKT3, construct: aa106-end (Q9Y243 106-479, looked up): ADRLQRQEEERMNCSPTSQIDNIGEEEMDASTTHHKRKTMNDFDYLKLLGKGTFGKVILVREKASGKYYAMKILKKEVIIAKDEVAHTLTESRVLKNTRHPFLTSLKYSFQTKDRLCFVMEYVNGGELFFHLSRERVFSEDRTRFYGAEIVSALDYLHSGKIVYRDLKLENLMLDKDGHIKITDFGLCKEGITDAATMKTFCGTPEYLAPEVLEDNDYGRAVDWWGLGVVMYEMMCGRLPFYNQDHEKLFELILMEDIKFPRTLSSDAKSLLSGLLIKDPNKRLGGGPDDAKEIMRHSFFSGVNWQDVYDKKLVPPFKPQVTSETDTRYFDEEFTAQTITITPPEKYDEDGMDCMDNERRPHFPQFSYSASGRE

MINK1, construct: aa1-320 (from UniProt Q8N4C8)
relative phosphorylation
Details | at +1 | at +2 | at +3 | at +4 | at -1 | at -2 | at -3 | at -4 | at -5
A fixed | 0.635 | 0.904 | 0.864 | 0.99 | 0.952 | 1.11 | 1.02 | 1.08 | 1.28
D fixed | 0.177 | 0.699 | 0.464 | 0.556 | 0.854 | 0.746 | 0.867 | 1 | 0.995
E fixed | 0.187 | 0.749 | 0.405 | 0.574 | 0.536 | 0.498 | 0.818 | 0.891 | 0.801
F fixed | 1.16 | 0.577 | 0.764 | 0.533 | 0.778 | 1.55 | 0.946 | 1.07 | 0.8
G fixed | 0.708 | 1.09 | 0.959 | 1.28 | 1.69 | 1.19 | 1.19 | 1.19 | 1.2
H fixed | 0.783 | 1.25 | 1.25 | 1.22 | 1.31 | 1.13 | 1.2 | 1.08 | 1.09
I fixed | 1.91 | 0.664 | 0.726 | 0.983 | 0.385 | 0.769 | 0.784 | 0.793 | 0.894
K fixed | 0.669 | 1.93 | 2.35 | 1.94 | 1.25 | 0.713 | 1.01 | 0.947 | 0.979
L fixed | 2.89 | 0.776 | 0.869 | 0.75 | 0.926 | 0.789 | 0.829 | 0.78 | 0.73
M fixed | 2.32 | 0.86 | 0.681 | 0.897 | 1.15 | 0.952 | 0.95 | 0.917 | 0.87
N fixed | 0.677 | 0.937 | 0.721 | 1.04 | 1.49 | 1.03 | 1.26 | 1.03 | 1.09
P fixed | 0.194 | 1.09 | 0.892 | 0.943 | 0.646 | 0.675 | 0.846 | 0.959 | 1.06
Q fixed | 0.587 | 0.914 | 0.818 | 0.926 | 1.11 | 0.882 | 0.9 | 0.996 | 0.958
R fixed | 0.65 | 2.39 | 2.76 | 1.74 | 1.4 | 0.821 | 1.15 | 0.971 | 1.19
V fixed | 1.06 | 0.763 | 0.773 | 0.743 | 0.536 | 0.893 | 0.858 | 0.966 | 0.98
W fixed | 1.45 | 0.591 | 0.928 | 1.07 | 0.822 | 1.38 | 1.28 | 1.18 | 0.978
Y fixed | 0.94 | 0.815 | 0.778 | 0.818 | 1.17 | 1.87 | 1.09 | 1.15 | 1.1
pThr fixed | 0.703 | 0.621 | 0.744 | 0.601 | 0.629 | 0.963 | 1.18 | 1.07 | 1.14
pTyr fixed | 0.282 | 0.462 | 0.623 | 0.51 | 0.797 | 0.745 | 1.04 | 0.679 | 1.06

OXSR1, construct: Full length (from UniProt O95747)
relative phosphorylation
Details | at +1 | at +2 | at +3 | at +4 | at -1 | at -2 | at -3 | at -4 | at -5
A fixed | 0.587 | 0.646 | 1.07 | 1 | 0.862 | 0.695 | 0.845 | 1.05 | 1.23
D fixed | 0.346 | 0.325 | 0.493 | 0.683 | 1.83 | 1.34 | 1.26 | 1.9 | 1.83
E fixed | 0.382 | 0.249 | 0.487 | 0.666 | 1.19 | 1.31 | 1.27 | 1.8 | 1.52
F fixed | 1.08 | 0.495 | 0.574 | 0.702 | 0.643 | 0.693 | 0.48 | 0.722 | 0.76
G fixed | 0.509 | 1.09 | 1.42 | 1.37 | 0.801 | 1.31 | 1.17 | 1.41 | 1.4
H fixed | 1.21 | 3.55 | 1.17 | 1.07 | 1.67 | 1.43 | 1.57 | 1 | 0.976
I fixed | 1.69 | 0.541 | 0.443 | 0.596 | 0.447 | 0.333 | 0.36 | 0.329 | 0.386
K fixed | 0.838 | 1.25 | 2.23 | 1.93 | 0.975 | 0.584 | 0.783 | 0.964 | 1.06
L fixed | 1.14 | 0.459 | 0.531 | 0.634 | 0.931 | 0.432 | 0.384 | 0.416 | 0.519
M fixed | 1.36 | 0.76 | 0.613 | 0.78 | 0.968 | 0.531 | 0.51 | 0.633 | 0.581
N fixed | 0.689 | 1.18 | 1.1 | 0.947 | 1.64 | 1.69 | 2.04 | 1.14 | 0.96
P fixed | 0.351 | 0.677 | 1.47 | 1.29 | 0.494 | 0.673 | 1.3 | 1.22 | 1.4
Q fixed | 1.06 | 1 | 0.907 | 1.06 | 0.987 | 1.61 | 1.18 | 1.09 | 0.757
R fixed | 1.04 | 2.08 | 2.47 | 1.7 | 1.33 | 0.677 | 0.846 | 0.994 | 1.12
V fixed | 1.53 | 0.678 | 0.556 | 0.63 | 0.446 | 0.378 | 0.552 | 0.535 | 0.549
W fixed | 1.99 | 0.782 | 0.72 | 1.09 | 0.706 | 0.84 | 0.663 | 0.864 | 0.852
Y fixed | 1.2 | 1.23 | 0.739 | 0.856 | 1.09 | 2.46 | 1.79 | 0.937 | 1.11
pThr fixed | 0.911 | 0.562 | 0.699 | 0.507 | 0.94 | 1.06 | 1.43 | 1.49 | 1.46
pTyr fixed | 0.769 | 0.428 | 0.728 | 0.82 | 2.18 | 1.52 | 1.41 | 1.53 | 1.82

AKT3, construct: aa106-end (from UniProt Q9Y243)
relative phosphorylation
Details | at +1 | at +2 | at +3 | at +4 | at -1 | at -2 | at -3 | at -4 | at -5
A fixed | 0.69 | 1.13 | 0.867 | 0.755 | 0.872 | 0.914 | 0.532 | 1.12 | 1.27
D fixed | 0.38 | 0.56 | 0.496 | 0.586 | 0.669 | 0.149 | 0.13 | 0.491 | 0.464
E fixed | 0.326 | 0.385 | 0.465 | 0.496 | 0.35 | 0.142 | 0.138 | 0.558 | 0.437
F fixed | 2.25 | 0.596 | 0.824 | 0.604 | 0.783 | 0.32 | 0.168 | 0.611 | 0.672
G fixed | 0.775 | 1.29 | 1.18 | 1.07 | 1.28 | 0.494 | 0.329 | 1.04 | 1.06
H fixed | 0.962 | 2.06 | 1.45 | 1.11 | 1.18 | 1.17 | 0.56 | 0.991 | 1.18
I fixed | 1.29 | 0.723 | 0.938 | 0.691 | 0.245 | 0.274 | 0.131 | 0.515 | 0.577
K fixed | 0.962 | 1.31 | 1.9 | 1.8 | 1.65 | 3.02 | 1.5 | 2.19 | 2.15
L fixed | 1.14 | 0.987 | 0.872 | 0.682 | 0.746 | 0.772 | 0.165 | 0.645 | 0.557
M fixed | 1.58 | 0.774 | 0.718 | 0.716 | 1.12 | 0.391 | 0.179 | 0.833 | 0.648
N fixed | 1.01 | 1.15 | 0.911 | 1.02 | 1.81 | 0.373 | 0.241 | 0.843 | 0.734
P fixed | 0.407 | 0.746 | 0.842 | 2.68 | 1.14 | 0.283 | 0.406 | 1.06 | 1.2
Q fixed | 0.895 | 0.716 | 0.981 | 0.98 | 1.03 | 0.429 | 0.502 | 1.02 | 0.797
R fixed | 1.09 | 1.82 | 1.86 | 1.54 | 1.63 | 7.37 | 11.4 | 3.08 | 2.97
V fixed | 1.23 | 1.02 | 0.711 | 0.659 | 0.402 | 0.324 | 0.147 | 0.639 | 0.692
W fixed | 0.989 | 0.917 | 1.11 | 0.911 | 0.647 | 0.253 | 0.218 | 0.638 | 0.847
Y fixed | 1.04 | 0.812 | 0.87 | 0.697 | 1.46 | 0.326 | 0.222 | 0.727 | 0.752
pThr fixed | 0.571 | 0.463 | 0.682 | 0.639 | 0.279 | 0.294 | 0.255 | 0.612 | 0.545
pTyr fixed | 0.643 | 0.656 | 0.74 | 0.517 | 0.787 | 0.263 | 0.223 | 0.537 | 0.618
